Reference: the supplement of paper PMC7877785
± gives the uncertainty stated by the source.

Experiment: self-splicing fitness, log relative to wild type (ln ratio); higher = more splicing; Tetrahymena group I intron in knt gene, E. coli kanamycin selection, DiMSum; sequences stand for … in CUCUCU…GGAGGGAAAAGUUAUCAGGCAUGCACCUGGUAGCUAGUCUUUAAACCAAUAGAUUGCAUCGGUUUAAAAGGCAAGACCGUCAAAUUGCGGGAAAGGGGUCAACAGCCGUUCAGUACCAAGUCUCAGGGGAAACUUUGAGAUGGCCUUGCAAAGGGUAUGGUAAUAAGCUGACGGACAUGGUCCUAACCACGCAGCCAAGUCCUAAGUCAACAGAUCUUCUGUUGAUAUGGAUGCAGUUCACAGACUAAAUGUCGGUCGGGGAAGAUGUAUUCUUCUCAUAAGAUAUAGUCGGACCUCUCCUUAAUGGGAGCUAGCGGAUGAAGUGAUGCAACACUGGAGCCGCUGGGAACUAAUUUGUAUGCGAAAGUAUAUUGAUUAGUUUUGGAGUACUCGUGGUCG
How it was run: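 Colonies from six replicate transformations of E. coli BL21(DE3) were pooled and amplicon-sequenced on an Illumina HiSeq 2500. The library placed an intron with all eight P1ex-region nucleotides randomised inside the knt kanamycin-resistance gene on pET-22b(+), and cells grew overnight at 37°C or 30°C on LB agar with or without 25 μg/mL kanamycin (plus 100 μg/mL carbenicillin, 50 μM IPTG, 0.2% rhamnose). Fitness is the DiMSum error-weighted combination of wild-type-normalised replicate fold changes, kanamycin versus none.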

Row | Sequence | self-splicing fitness (ln) (30 °C) | self-splicing fitness (ln) (37 °C)
1 | GGGCAGCAAUAUUACGAGAU | -3.14 ± 0.23 | -2.41 ± 0.32
2 | CUCUAGCAAUAUUACGACCG | -0.158 ± 0.23 | -0.785 ± 0.24
3 | ACUGAGCAAUAUUACGUCCC | -3.06 ± 0.39 | 
4 | UCCUAGCAAUAUUACGACCA | -0.552 ± 0.22 | -2.28 ± 0.35
5 | UGAUAGCAAUAUUACGCUCA | 0.162 ± 0.15 | -0.26 ± 0.15
6 | CUCAAGCAAUAUUACGGAGC | -3.11 ± 0.11 | -2.54 ± 0.14
7 | GACGAGCAAUAUUACGUUUU | -4.36 ± 0.28 | -1.61 ± 0.13
8 | UUAGAGCAAUAUUACGUUUG | -2.04 ± 0.11 | -1.05 ± 0.14
9 | GAGUAGCAAUAUUACGCCUG | -1.23 ± 0.13 | -0.972 ± 0.15
10 | CCGCAGCAAUAUUACGCUGU | -3.3 ± 0.36 | -2.85 ± 0.23
11 | ACGUAGCAAUAUUACGCGUA | -2.22 ± 0.17 | -1.74 ± 0.16
12 | CACCAGCAAUAUUACGGCAA | -1.68 ± 0.099 | -0.956 ± 0.1
13 | CGGUAGCAAUAUUACGAAAU | -2.91 ± 0.21 | -3.07 ± 0.37
14 | GUUUAGCAAUAUUACGGCCG | -2.4 ± 0.18 | -0.926 ± 0.21
15 | GGCUAGCAAUAUUACGGGGC | -3.67 ± 0.47 | -2.08 ± 0.28
16 | CAUCAGCAAUAUUACGUCGC | -3.05 ± 0.18 | -2.11 ± 0.23
17 | GCUGAGCAAUAUUACGUUUC | -1.94 ± 0.18 | -1.55 ± 0.2
18 | UGGUAGCAAUAUUACGUUGG | -1.4 ± 0.12 | -1.7 ± 0.14
19 | UUAGAGCAAUAUUACGUCCU | -1.36 ± 0.21 | -1.87 ± 0.31
20 | GUAAAGCAAUAUUACGGAAU | -0.906 ± 0.099 | -0.779 ± 0.15
21 | AACAAGCAAUAUUACGGCUA | -0.414 ± 0.067 | 0.274 ± 0.092
22 | UUAAAGCAAUAUUACGCGAA | -0.169 ± 0.15 | 0.0649 ± 0.18

Row | Sequence | self-splicing fitness (ln) (30 °C) | self-splicing fitness (ln) (37 °C)
23 | UUCAAGCAAUAUUACGAGAC | -3.86 ± 0.23 | -2.23 ± 0.19
24 | AGGAAGCAAUAUUACGACCG | -0.0847 ± 0.2 | 0.135 ± 0.23
25 | AGGAAGCAAUAUUACGAUCG | -1.27 ± 0.16 | -0.489 ± 0.16
26 | UCAAAGCAAUAUUACGACCA | -1.97 ± 0.22 | -1.4 ± 0.23
27 | UAACAGCAAUAUUACGAUGA | -1.01 ± 0.078 | -0.269 ± 0.088
28 | AUUCAGCAAUAUUACGACGU | -0.0483 ± 0.06 | 0.146 ± 0.068
29 | GAUGAGCAAUAUUACGGUUU | -2.06 ± 0.097 | -1.04 ± 0.13
30 | UCUUAGCAAUAUUACGUACC | -1.26 ± 0.48 | -1.53 ± 0.41
31 | CCUAAGCAAUAUUACGUGUU | -3.2 ± 0.14 | -3.07 ± 0.19
32 | UGUCAGCAAUAUUACGGUAG | -0.675 ± 0.07 | -0.235 ± 0.091
33 | GUAAAGCAAUAUUACGUUGC | -2.38 ± 0.1 | -3.2 ± 0.26
34 | UGGCAGCAAUAUUACGGAAU | -2.54 ± 0.12 | -1.22 ± 0.17
35 | UCGCAGCAAUAUUACGGAUC | -3.82 ± 0.35 | 
36 | CAUGAGCAAUAUUACGCGAG | -2.19 ± 0.14 | -1.47 ± 0.18
37 | AAUAAGCAAUAUUACGUUAG | -4.52 ± 0.19 | -2.69 ± 0.17
38 | UAUAAGCAAUAUUACGUCUC |  | -2.22 ± 0.35
39 | CCGCAGCAAUAUUACGGGAC | -4.12 ± 0.46 | -2.65 ± 0.29
40 | AUCUAGCAAUAUUACGGUCG | -2.96 ± 0.22 | 0.125 ± 0.18
41 | UUACAGCAAUAUUACGACCC | -2.6 ± 0.32 | -2.14 ± 0.44
42 | AUCUAGCAAUAUUACGUCCG | -1.67 ± 0.2 | -1.42 ± 0.28
43 | AUUCAGCAAUAUUACGUAUC | -3.62 ± 0.26 | -1.04 ± 0.16
